Results published in publication PMC8099640, “Collagen IV^α345 dysfunction in glomerular basement membrane diseases. III. A functional framework for α345 hexamer assembly” (The Journal of Biological Chemistry, 2021).

B1: recombinant human collagen IV α5 NC1 monomer (domain or fragment, UniProt P29400 1461-1685, looked up)
chain: GFLITRHSQTTDAPQCPQGTLQVYEGFSLLYVQGNKRAHGQDLGTAGSCLRRFSTMPFMFCNINNVCNFASRNDYSYWLSTPEPMPMSMQPLKGQSIQPFISRCAVCEAPAVVIAVHSQTIQIPHCPQGWDSLWIGYSFMMHTSAGAEGSGQALASPGSCLEEFRSAPFIECHGRGTCNYYANSYSFWLATVDVSDMFSKPQSETLKAGDLRTRISRCQVCMKRT
notes: collagen IV α5 chain, NC1 domain, human; amplified by PCR from a human kidney cDNA library; Secreted by means of the BM-40 signal peptide of the vector (derivative of pRc-CMV)

What was measured:
[1] = target: recombinant α345 miniprotomer (human) (UniProt Q01955); assay: atomic force microscopy; miniprotomer 1 to 2 μg/ml deposited on mica from buffer with chloride, imaged dry, AC tapping mode in air
[2] = target: the molecule itself; assay: SEC; NC1 monomers alone or in equimolar mixture, 2 mg/ml in 25-mM Tris acetic acid buffer pH 7.5, NaCl added (150 mM), 24 h at 37 °C; Superdex 200 Increase 10/300GL in TBS; hexamer peak blotted with α3, α4 and α5 NC1-specific mAbs

Row | Molecule | stoichiometry N [1] | stoichiometry N [2]
1 | recombinant α345 miniprotomer (from UniProt Q01955 29-1670; P53420 39-1690; P29400 27-1685) (complex) | 2 | –
2 | B1 | – | 6
